Measurements: patent publication US20080182249A1, “Expression systems for mammalian and mycobacterial desaturases” (priority 2006, published 2008)
Several values for one entry are separate records, joined by “and”; a condition that tells them apart may be missing. Identical values can stand only once.

B1: hSCD5-wt: human SCD5 wild-type construct expressed in yeast L8-14C (protein, UniProt Q86SK9 1-330, looked up)
Stearoyl-CoA desaturase 5: MPGPATDAGKIPFCDAKEEIRAGLESSEGGGGPERPGARGQRQNIVWRNVVLMSLLHLGAVYSLVLIPKAKPLTLLWAYFCFLLAALGVTAGAHRLWSHRSYRAKLPLRIFLAVANSMAFQNDIFEWSRDHRAHHKYSETDADPHNARRGFFFSHIGWLFVRKHRDVIEKGRKLDVTDLLADPVVRIQRKYYKISVVLMCFVVPTLVPWYIWGESLWNSYFLASILRYTISLNISWLVNSAAHMYGNRPYDKHISPRQNPLVALGAIGEGFHNYHHTFPFDYSASEFGLNFNPTTWFIDFMCWLGLATDRKRATKPMIEARKARTGDSSA
B2: hSCD5-6xH: human SCD5 construct with 6xHis tag expressed in yeast L8-14C (protein, UniProt Q86SK9 1-330, looked up)
Stearoyl-CoA desaturase 5: B1 Stearoyl-CoA desaturase 5
modifications: C-terminal 6xHis tag
notes: human SCD5 construct with 6xHis tag expressed in yeast L8-14C
B3: mSCD4: mouse stearoyl-CoA desaturase isoform 4, cloned from heart, expressed in yeast (protein, UniProt Q6T707 1-353, looked up)
Stearoyl-CoA desaturase 4: MTAHLPQEISSRCSTTNIMEPHSRRQQDGEEKMPLQAEDIRPEIKDDLYDPSYQDEEGPPPKLEYVWRNIIFMALLHVGALYGITLVPSCKVYTWLLGVFYNVVAGLGITAGAHRLWSHRTYKARLPLRIFLIMANTMAFQNDVYEWARDHRAHHKFSETHADPHNSRRGFFFSHVGWLLVRKHPAVKEKGKNLDMSDLKAEKLVMFQRRYYKLAVTLMFIILPTLVPWYLWGETFQHSLCVSNFLRYAVLLNFTWLVNSAAHLYGYRPYDRGIGARENPFVSMASLGEGFHNYHHTFPYDYSVSEYRWHINFTTFFIDCMAALGLAYDRKKVSKAVVLARIKRTGDGSHKSS
B4: mSCD1 only: recombinant mSCD1 prepared as yeast microsomes, no exogenous cyt b5 or reductase (protein, UniProt P13516 1-355, looked up)
Acyl-CoA desaturase 1: MPAHMLQEISSSYTTTTTITAPPSGNEREKVKTVPLHLEEDIRPEMKEDIHDPTYQDEEGPPPKLEYVWRNIILMVLLHLGGLYGIILVPSCKLYTCLFGIFYYMTSALGITAGAHRLWSHRTYKARLPLRIFLIIANTMAFQNDVYEWARDHRAHHKFSETHADPHNSRRGFFFSHVGWLLVRKHPAVKEKGGKLDMSDLKAEKLVMFQRRYYKPGLLLMCFILPTLVPWYCWGETFVNSLFVSTFLRYTLVLNATWLVNSAAHLYGYRPYDKNIQSRENILVSLGAVGEGFHNYHHTFPFDYSASEYRWHINFTTFFIDCMAALGLAYDRKKVSKATVLARIKRTGDGSHKSS
modifications: yeast microsomes
notes: recombinant mSCD1 prepared as yeast microsomes, no exogenous cyt b5 or reductase
B5: hSCD1-wt: human SCD1 wild-type construct expressed in yeast L8-14C (protein, UniProt O00767 1-359, looked up)
Stearoyl-CoA desaturase: MPAHLLQDDISSSYTTTTTITAPPSRVLQNGGDKLETMPLYLEDDIRPDIKDDIYDPTYKDKEGPSPKVEYVWRNIILMSLLHLGALYGITLIPTCKFYTWLWGVFYYFVSALGITAGAHRLWSHRSYKARLPLRLFLIIANTMAFQNDVYEWARDHRAHHKFSETHADPHNSRRGFFFSHVGWLLVRKHPAVKEKGSTLDLSDLEAEKLVMFQRRYYKPGLLMMCFILPTLVPWYFWGETFQNSVFVATFLRYAVVLNATWLVNSAAHLFGYRPYDKNISPRENILVSLGAVGEGFHNYHHSFPYDYSASEYRWHINFTTFFIDCMAALGLAYDRKKVSKAAILARIKRTGDGNYKSG

How the values were obtained:
transgenic L8-14C = assay: Fatty acid profile of transgenic L8-14C expressing human SCD constructs; assay type: cell-based, Saccharomyces cerevisiae; details: for 16:0 / 16:1 / 18:0 / 18:1: percentage of total C16 and C18 fatty acids detected
[1] = tested on: OLE1 deficient yeast strain L8-14C; assay type: cell-based, Saccharomyces cerevisiae; details: galactose minimal medium without unsaturated fatty acids, plus grades not defined
mSCD1 = molecular target: T1, mSCD1 (Mus musculus, UniProt P13516); assay: Conversion of [14C]-18:0-CoA to [14C]-18:1-CoA by reconstituted complexes of recombinant mSCD1 with cyt b5 and cyt b5 reductase; assay type: biochemical
T1 construct: 6xHis (from pYES-DEST52) (C); made in house; host or cells: mSCD1: Saccharomyces cerevisiae (OLE1-deficient strain L8-14C), used as microsomes; cyt b5 and cyt b5 reductase: Escherichia coli
T1 sequence (P13516 1-355): B4 Acyl-CoA desaturase 1

Row | Molecule | Ratio 18:1/16:1 (transgenic L8-14C) | 16:0 (transgenic L8-14C) [percentage] | 16:1 (transgenic L8-14C) [percentage] | 18:0 (transgenic L8-14C) [percentage] | 18:1 (transgenic L8-14C) [percentage] | In vivo activity [1] | % conversion (mSCD1; 18:0-CoA to 18:1-CoA, single trial of duplicate) | Correction by subtraction of background (mSCD1; average conversion minus background) [%] | average conversion (mSCD1; mean of duplicate trials) [%] | cpm 18:1-CoA (mSCD1; single trial of duplicate) | total cpm (mSCD1; single trial of duplicate) | cpm 18:0-CoA (mSCD1; single trial of duplicate, mSCD1 yeast microsomes, cyt b5 and cyt b5 reductase from E. coli)
1 | B1 | 3.39 | 45.032 | 8.90 | 7.73 | 30.20 |  |  |  |  |  |  | 
2 | B2 | 3.73 | 56.64 | 6.70 | 10.79 | 25.70 |  |  |  |  |  |  | 
3 | B3 |  |  |  |  |  | Not active |  |  |  |  |  | 
4 | B4 |  |  |  |  |  |  | 5.40% and 5.55% | 3.47 | 5.48 | 1626 cpm and 1743 cpm | 30,094 cpm and 31,416 cpm | 28,468 cpm and 29,673 cpm
5 | B5 | 0.63 | 61.87 | 23.22 | 9.40 | 14.65 |  |  |  |  |  |  | 
